{
  "source": "paper PMC4843776",
  "about": "(Biochemistry, 2016)",
  "molecules": {"B1": {"name": "leupaxin^1-151 (human leupaxin; residues 1-151) (domain or fragment, UniProt O60711 1-151, looked up)", "chain": "MEELDALLEELERSTLQDSDEYSNPAPLPLDQHSRKETNLDETSEILSIQDNTSPLPAQLVYTTNIQELNVYSEAQEPKESPPPSKTSAAAQLDELMAHLTEMQAKVAVRADAGKKHLPDKQDHKASLDSMLGGLEQELQDLGIATVPKGH"}, "B2": {"name": "leupaxin^1-105 (human leupaxin; residues 1-105) (domain or fragment, UniProt O60711 1-105, looked up)", "chain": "MEELDALLEELERSTLQDSDEYSNPAPLPLDQHSRKETNLDETSEILSIQDNTSPLPAQLVYTTNIQELNVYSEAQEPKESPPPSKTSAAAQLDELMAHLTEMQA"}},
  "key": {"[1]": {"biological_target": "paxillin LD4 LD4 motif peptide (Homo sapiens) (UniProt P49023)", "conditions": "cited from earlier work"}, "[2]": {"biological_target": "paxillin LD4 LD4 motif peptide (Homo sapiens) (UniProt P49023)", "conditions": "cited from earlier work", "remark": "listed apart in the source"}, "Pyk2-FAT": {"tested_on": "Pyk2-FAT", "test": "NMR titration / chemical shift perturbation of 15N-labeled Pyk2-FAT", "assay_type": "binding, human"}, "Pyk2-FAT domain": {"tested_on": "Pyk2-FAT domain", "conditions": "ref [36]; cited from earlier work"}, "[3]": {"biological_target": "FAT domain of human Pyk2 (residues 871-1005) (Homo sapiens, UniProt Q14289)", "test": "ITC of leupaxin LD peptides and leupaxin^1-105 binding to Pyk2-FAT"}, "Pyk2-FAT-LD1": {"biological_target": "Pyk2-FAT-LD1 (Homo sapiens, UniProt Q14289)", "conditions": "X-ray, 2.0 Å (4XEV); 0.5 mM protein, 2 mM leupaxin-LD4 peptide"}, "[4]": {"biological_target": "Paxillin LD4 peptide LD4 (Homo sapiens) (UniProt P49023)", "sequence (P49023 263-282)": "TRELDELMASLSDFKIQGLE", "conditions": "cited from earlier work"}, "[5]": {"biological_target": "Paxillin LD4 peptide LD4 (Homo sapiens) (UniProt P49023)", "conditions": "cited from earlier work", "remark": "listed apart in the source"}, "[6]": {"biological_target": "T1, FAT domain of human Pyk2 (residues 871-1005) (human, UniProt Q14289 871-1005)", "test": "ITC"}, "[7]": {"biological_target": "T1, FAT domain of human Pyk2 (residues …)", "test": "SEC-MALS"}, "[8]": {"biological_target": "T1, FAT domain of human Pyk2 (residues …)", "test": "ITC", "remark": "listed apart in the source"}, "[9]": {"conditions": "ITC, 20 mM MES, pH 6.2, 15°C, two-site sequential model, first site, duplicate"}, "[10]": {"conditions": "ITC, 20 mM MES, pH 6.2, 15°C, two-site sequential model, second site, duplicate"}},
  "note": "Read-outs that look alike come from different tables or passages of the source. Where no end group is shown, it is not given here.",
  "data": [
    {"molecule": "Pyk2 FAT (871-1005), H2/H3 site (from UniProt Q14289)", "values": [
      {"measurement": "Kd", "setting": "[1]", "value": 8, "unit": "µM"}
    ]},
    {"molecule": "Pyk2 FAT (871-1005), H1/H4 site (from UniProt Q14289)", "values": [
      {"measurement": "Kd", "setting": "[2]", "value": 46.3, "unit": "µM"}
    ]},
    {"molecule": "KTSAAAQLDELMAHLTEMQ [leupaxin-LD4]", "values": [
      {"measurement": "CSP differences between leupaxin-LD1 and leupaxin-LD4", "setting": "Pyk2-FAT; 4 equivalents peptide, 15N-labeled Pyk2-FAT, 20 mM MES, pH 6.2, 305K", "value": "residues Arg 918 and Ala 951 from H2/H3 show a high magnitude of CSP"},
      {"measurement": "NMR site preference on Pyk2-FAT", "setting": "Pyk2-FAT; NMR titrations, LD1 for H1/H4, LD4 for H2/H3, respectively", "value": "strong preference for H1/H4 and H2/H3 sites of Pyk2-FAT, respectively"},
      {"measurement": "Binding behaviour with Pyk2-FAT (in words)", "setting": "Pyk2-FAT domain", "value": "compete equally for H2/H3"},
      {"measurement": "Stoichiometry of binding (peptide to Pyk2-FAT)", "setting": "[3]; ITC, 20 mM MES, pH 6.2, 15°C", "value": "2 to 1", "unit": "stoichiometry"},
      {"measurement": "ΔG, first site", "setting": "[3]; [9]", "value": "-7.6 ± 0.3", "unit": "kcal/mol"},
      {"measurement": "ΔH, first site", "setting": "[3]; [9]", "value": "-3.0 ± 0.2", "unit": "kcal/mol"},
      {"measurement": "−T.ΔS, first site", "setting": "[3]; [9]", "value": "-4.6 ± 0.6", "unit": "kcal/mol"},
      {"measurement": "ΔG, second site", "setting": "[3]; [10]", "value": "-6.0 ± 0.1", "unit": "kcal/mol"},
      {"measurement": "ΔH, second site", "setting": "[3]; [10]", "value": "0.5 ± 0.3", "unit": "kcal/mol"},
      {"measurement": "−T.ΔS, second site", "setting": "[3]; [10]", "value": "-6.5 ± 0.4", "unit": "kcal/mol"},
      {"measurement": "Higher affinity at the preferred Pyk2-FAT binding site", "setting": "[3]; ratio of the two site KDs (LD1 prefers H1/H4, LD4 prefers H2/H3)", "value": "~19", "unit": "fold"},
      {"measurement": "Binding site in crystal structure with Pyk2-FAT-LD1", "setting": "Pyk2-FAT-LD1", "value": "binds at the H2/H3 site"}
    ]},
    {"molecule": "Pyk2 FAT H2/H3 site (from UniProt Q14289)", "values": [
      {"measurement": "Kd", "setting": "[4]", "value": 8, "unit": "µM"}
    ]},
    {"molecule": "Pyk2 FAT H1/H4 site (from UniProt Q14289)", "values": [
      {"measurement": "Kd", "setting": "[5]", "value": 46.3, "unit": "µM"}
    ]},
    {"molecule": "KTSAAAQLDELMAHLTEMQ (peptide, UniProt O60711 86-104, looked up)", "note": "[leupaxin-LD4 peptide (human leupaxin; residues 86-104)]", "values": [
      {"measurement": "KD first site", "setting": "[6]", "value": "2.2 ± 1", "unit": "µM"},
      {"measurement": "KD second site", "setting": "[6]", "value": "33 ± 7.2", "unit": "µM"},
      {"measurement": "dH first site", "setting": "[6]", "value": "-3 ± 0.2", "unit": "kcal/mol"},
      {"measurement": "dH second site", "setting": "[6]", "value": "0.5 ± 0.3", "unit": "kcal/mol"}
    ]},
    {"molecule": "B1", "values": [
      {"measurement": "stoichiometry N", "setting": "[7]", "value": 1}
    ]},
    {"molecule": "B2", "values": [
      {"measurement": "Kd", "setting": "[8]", "value": "0.6 ± 0.2", "unit": "µM"},
      {"measurement": "dH", "setting": "[8]", "value": "-2.5 ± 0.5", "unit": "kcal/mol"},
      {"measurement": "stoichiometry N", "setting": "[8]", "value": 1}
    ]},
    {"molecule": "MEELDALLEELERSTLQDSD (peptide, UniProt O60711 1-20, looked up)", "note": "[leupaxin-LD1 peptide (human leupaxin; residues 1-20)]", "values": [
      {"measurement": "dH first site", "setting": "[6]", "value": "-2 ± 0.2", "unit": "kcal/mol"},
      {"measurement": "dH second site", "setting": "[6]", "value": "1.6 ± 0.3", "unit": "kcal/mol"}
    ]}
  ]
}
